Data published in the nanobody polyreactivity screen of Harvey et al. (2022).

Experiment: yeast display, Sf9 membrane polyspecificity reagent, FACS + sequencing; frameworks hold sequencing errors
Outline: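 In a synthetic yeast display library (Saccharomyces cerevisiae BJ5465), nanobody expression was induced with galactose for 36–48 hours. FACS gates were set low and high (top ~1%) using anti-HA fluorescence for expression and streptavidin fluorescence for binding of the Sf9 membrane reagent. Each polyreactivity label is drawn from the gate of origin.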

Sequence	polyreactivity (PSR sort gate)
QVQLVESGGGLVQAGGSLRLSCAASGRIYTRYMGWYRQAPGKEREMVATINWSGGSTYYADSVKGRFTISRDNAKNTVYLQMNSLKPEDTAVYYCNARNVDFYYVQYNGAKIFDYWGQGTQVTVSS	low polyreactivity
QVQLVESGGGLLQAGGSLRLSCAASGFTFGGNAMGWYRQAPGKERELVAAITSRGGSTYYADSVKGRFTISRDNAKNTFYLQMYSLKPEDTAVYYCAAQFTTRYDWGQGTQVTVSS	high polyreactivity
QVQLVESGGALVQAGGSLRLSCAASGIIFGGYALGWYRQEPGKERELVAAISCGGSTNYADSVKGRFTISRDNAKNTVYLQMNSLKPEDTSVYYCAADSASSYSYNYWGQGSQVTVSS	low polyreactivity
QVQLVESGGGLVQAGGSLSLSCAASGRTFYANAMGWNRQAPGKERELVATITRGGSTNYADSVKGRFTISRDNAKNTVYLQMNSLKPEDTAVYYCAARSYTSSHRHYYWGQGTQVTVSS	low polyreactivity
QVQLVESGGGLVQAGGSLRLSCAASGLIFKRYGMGWYRQAPGKERELVAAISRSGGNTYYADSVKGRFTISRDNAKNTVYLQMNSLKPEDTAVYYCAATATYTYSDVDYWGQGTQVTVSS	high polyreactivity
QDQLVESGGGLFQAGGSLRLSCSASGSIFQYYTMGWYRQAPGKERELVAAIKSGGRTNYADSVKGRFTISRDNAKNTVYLQMNSLKPEDTAVYYCAKRLSTRASFGEEDSWGQGTQVTVSS	low polyreactivity
QVQLESGGGLVQAGGSLRLSCAASGITFQLYDMGWYRQAPGKERELVAAINSSGGSTYYADSVKGRFTISRDNAKNTVYLQMNSLKPEDTAVYYCNVGFAPVTNDQPVSTEYDYWGQGTQVTVSS	low polyreactivity
QVQLVESGGGLVQAGGRLRLTCAASGFTFRYYAMGWYRQAPGKERELVATITRGGSTNYAESVKWRFTISRDNAKNTVYFQMNSLKPEDTAVYYCATGKIYWRGYEYWGQGTQVTVSS	high polyreactivity
QVQLVESGGGLVQAGGSLRLSCAATGSIFNIYTMGRYRQAPGKERELVAVITSSGGKYYADSLKGRFTISRDNAMNTVYLQMNSLKPEDTAVYFCAARRRPYSPHLGYWGQGTQVTVSS	high polyreactivity
QVQLVESGGGLVQAGGSLRLSCAASGRTFYPYAMGWYRQAPRKERELVAAISRSGGSTYADSVKGRFTISRDNAKNTVYLQMNSLKREDTAVYYCATRRKTYLSFNYDYWGQGTQVTVSS	low polyreactivity
QVQLVESGGGLVQAGGSLRLSCAASGFTFYAYAMGWYRPAPGKERELVAGISWSGGSTYYADSVKGRFTISRDNAKNTVYLQMNSLKPEDTAVYYCAAYSIAELWEYYYWGQGTQVTVSS	low polyreactivity
QVQLVESGGGLVQAGGSLRLSCAASGITFVYYAMGWYRQAPGNERELVATIDRSGTSTYYADSVKGRFTISRDNAKNTVVLQMTSLKQEDTAVYDCNAHRYAFYQYYRRMDYWGKGTQVTVSS	high polyreactivity
QVQLVESGGGLVQAGGSLRLSCAASGSIFYDKDSGWYRQAPGKERELFAAITSTGGSTYYADSVKGRFTISRDHAKNTVYLQMNSLKPEDTAVYDCNTPTYLYWGFNTYDYWGQGTQFTVSS	low polyreactivity
QVQLVESGGGLVQAGGSLRLSCAASGITFDLYAMGRYRQAPGKERELVAASTYYADSVKGRFTISRDNAKNTVYLQMNSLKPEDTAVYFCNTREPVTYDYWGQGTQVTVSS	high polyreactivity
QVQLVESGGGLVQAGGSLRLSCAASGNIFRINGMGWYRQAPGKERELVAAISFSGGSTYYADSVKGRFTISRDNAKNTVYLQMNSLKPEDTAVYYCNADSTKGWYHDYDYWGQGTQVTVSS	low polyreactivity
QVQLVESGGGLVQAGGSLRLSCAASGSSFAENAMGWSRQAPGKERELVATIRSGGSTYADSVKGRFTISRDNAKKTVNLQMNILKPEDTAVYYCATDRYPHSATPGDYWGQGTQVTVSS	low polyreactivity
QVQLVESGGGLVQAGGRHRLSCAASGRTFWGYGMGWYRQPPGKDRELVATISSGGSTYYEDSVKGRFTISRDNAMNTVYLQMNSLKPEDTAVYYCAARPPRSYWRYQSDYWGLGTQVTVSS	high polyreactivity
QVQLVESGGGLVQAGGSLRLSCAASGGTFSSNAMGWYRQAPGKERELVAAISGSGDRTYYADSVKGRFTISRDNAKNTVYLQMNSLKPEDTAVYYCAKTLHKGSRGRYNYWGQGTQVTVSS	high polyreactivity
QVQLVESGGGLVQAGGSLRLSCAASGIIFVRYAMGWYRQAPGKERELVAAITRNGGRTYYADSVKGRFTISRDNAKNTVYLQMNSLKPEDTAVYYCAAYPAYPGTLEMDYWGQGTQVTVSS	high polyreactivity
QVQLVESGGGLVQAGGSLRLSCAASGLIFSSNAMGWYRQAPGKERELVAAISRRGGNTYYADSVKGRFTISRDNAKNTVYLQMNSLKPEDTAVYYCAARRYYVASIYRYDSWGQGTQVTVSS	high polyreactivity
QVQLVESGGGLVQAGGSLRLSCAASGSTFSLYAMGWYRQAPGKERELVAAISSSGGSTYYADYVKGRFTISRDNAKNTVYLQMNSLKPEDTAVYYCAAYRVGSYDYWGQGTQVTVSS	high polyreactivity
QVQLVESGGGLVQAGGSLRLSCAASGRIIVLYAMGWYRQAPGKERELVASIRSGGSTNYADSVKGRFTISRDNAKNTVYLQMNSLKPEDTAVYYCAARPDHKRYDYWGQGTQVTVSS	low polyreactivity

Sequence	polyreactivity (PSR sort gate)
QVQLVESGGGLVQAGGSLRLSCAASGSIFGYNAMGWYRQAPGKERELVAAINYNGGRTYYADSVKGRFTISRDNAKNTVYLQMNSLKPEDTAVYYCNKVYLRTSGRDYWGQGTQVTVSS	high polyreactivity
QVQLVESGGVLVQAGGSLRLSCAASGRIFGRYAMGWYRPAPGKERELVAAISWSGDSTYYADSVKGRFTISRDNSTNTVYLHMNSLKPEDTAVYYCATGGRGGRRYEYWGQGTQVTVSS	low polyreactivity
QVQLVESGGGLVQAGGSLRLSCAASGRTFYGYAMGRYRQAPGKERELVAAISSGGSTYYADSVKGRFTISRDNAKNTVYLQMNSLKPEDTAVYDCAAVKWRRHGGSSEYDYWGQGTQVTVSS	high polyreactivity
QVQLVESGGGLVQAGGSLRLSCAASGSTFDYYAMGWDRQAPGKERELVAAIRWSSGRTYYADSVKGRFTISRDNAKNTVYLQMHSLKPEDTAVYYCASAGHRGQGGPRYNYWGQGTQVTVSS	high polyreactivity
QVQLVESGGGLVQAGGSLRLSCAASGFNIIPYDMGWYRQAPGKEMDLVATISRGGSTNYADSVKGRFTISRDNAKNTVYLQMNSLKPEDTAVYYCAAEYKVVFSQPYGEYDYWGQGTQVTVSS	low polyreactivity
QVQLVESGGGLVQAGGSLRLSCAASGSIVVNNGMGWYRQAPGKERELVATISERGGGTYYADSVKGRFTISRDNAKNTVYLQMNSLKPEDTAVYYCAARVPRFYFVPLYYWGQGTQVTVSS	low polyreactivity
QVQLVESVGGLVQAGGSLRFSCAASGRIFKWYAMGWYRQAPGKEREFVAGIRWGGGRTHYADSVKGRFTISRDNAKNTVYLQMNSLKPEDTAVYYCAADNRGNTVYYRNYYWGQGTQVTVSS	high polyreactivity
QVQLVESGGGLVQAGGSLRLSCAASGRIFTPYAMGWYRQAPGKERELVAVIRDGSTYYADSVKGRFTISRDNAKNTVYLQMNSLKPEDTAVYYCAVRHRYTRAYWGRDYWGQGTQVTVSS	low polyreactivity
QVQLVESGGGLVQAGGRLRLSCAASGFTYPEYAMGWYRQAPGKEMELVAAIDSGDGSTYYADSVKGRFTISRDNAKNTVYLQMISLKPEDTAVYYCATDRYPHSATPGDYWGQGTQVTVSS	low polyreactivity
QVQLVESGGGLVQAGGSLRLSCAASGSTFQSYAMGWYRQAPGKERELVAAIDIGDSTYYADSVKGRYTISRDNAKNTVYLQMNSLKPEDTAVYYCAADDEDVLFDYWGQGTQVTVSS	low polyreactivity
QVQLVESGGGLVQAGGSLRLSCAASGLTFRKNAMGWYRQAPGKERELVAAISTGGRTYYADSVKGRFTISRDNAKNTVYLQMNSLKPEDTAVYYFNSVSVKSGLDYWGQGTQVTVSS	high polyreactivity
QVQLVESGGGLVQAGGSLRLSCAASGYIFKRYAMGWYRQAPGKERELVAAISGNGGSTYYADSVKGRFTISRDNAKNTVYLQMNSLKPEDTAVYYCNKSGYYSPTSKGEYWGQGTQVTVSS	low polyreactivity
QVQLVESGGGLVQAGGSLRLICAASGRIFWYYAMGWYRQAPGKERELVASITSGGRTKYADSVKGRFTISRDNAKNTVYLQMNSLKPEDTAVYYCAARLLIDYHADWWVAYDYWGQGTQVTVSS	low polyreactivity
QVQLVESGGGLVQAGGSLRLSCAATGLIIYRNAMGWYRQAPGKEREFVAAISYSGGSTSYADSVKGRLTISRDNAKNTVYLQMNSLKPEDTAVYYCAVDQSRGWFYLYYYWGQGTQVTVSS	low polyreactivity
QVQLVESGGGLVQAGGSLRISCAASGYTFGKNAMGWYRQAPGKERELVAGISSRGGSTYYADSVKGRFTISRDNAKNTLYLQMNSLKPEDTAVYYCAAVAYTGGPRKLGFNYWGQGTQVTVSS	high polyreactivity
QVQLVDSGGGLVQAGGSLRLSCSASGYNFIGYAMGWYRQAPGKERELVATITSGGSTNYADSVKGRFTISRDNAKNTVYLQMNSLNPEDTAVYYCAAGRGRYFYSWRYLYAIFDYWGQGTQVTVSS	low polyreactivity
QVQLVESWGGLVQAGGSLRLSCAASGSTISDNAMGWYRQAPGKERELVATIDDDGSTYYADSVKGRFTISRDNAKKTVYLQMNSLKPEDTAVYYCAAEWYGGYPFGYWGQGTQVTVSS	low polyreactivity
QVQLVESGGGLVQAGGSLRLSCAASGLTFGTNAMGWSRQAPGKERELVAAISTSSGSTYYSDSVKGRFTISRDNAKNTDYLQMNSLKPEDTAVYYSAAVTVTNLSYYRYYYWGQGTQVTVSS	low polyreactivity
QVQLVESGGGLVQAGGSLRLSCAASGRIFGVNAMGWYRQAPGKERELVAAISWSGGSTYYADSVKGRFTISRDNAKNTVYLQMNSLKPEDTAVYYCAADIWFYTYYLGQGTQVTVSS	high polyreactivity
QVQLVESGGGLVQAGGSLRLSCAASGRIFHPNVMGWYRQAPGKERELVAAISSGGSTYYADSVKGRFTISRDNAKNTVYLQMNSLKPEDTAVYYCATRIRSGSYPYPRYDYWGQGTQVTVSS	high polyreactivity
QVQLVESGGGLVQAGGSLRLSCAAYGLIFTHNTMGWYRQAPGKERELVAAITTSGGTTYYADSVKGRFTISRDNAKNTVYLQMNSLKPEDTAVYYCNALYLSTRSGDYWGQGTQVTVSS	high polyreactivity
